From patent US9260500B2, “Peptide and use thereof” (Takeda Pharmaceutical Company Limited, priority 2009, dated 2016)
Non-standard residues stand in square brackets, D forms with d. hArg = N=C(N)NCCCC[C@H](N)C(=O)O; 4Pal = N[C@@H](Cc1ccncc1)C(=O)O; Cha = N[C@@H](CC1CCCCC1)C(=O)O; hSer = N[C@@H](CCO)C(=O)O; Iva = CC[C@](C)(N)C(=O)O; Nle = CCCC[C@H](N)C(=O)O; Orn = NCCC[C@H](N)C(=O)O; Nva = CCC[C@H](N)C(=O)O; Nar = not defined here; Aib = CC(C)(N)C(=O)O

What was measured:
human Y2 receptor [1] = target: T1, human Y2 receptor (Homo sapiens, UniProt P49146); test: Receptor Binding Assay (RBA) for Human Y2, [125I]-PYY displacement on hY2R/CHO membrane fraction; details: IC50 of test compound/IC50 of PYY(3-36) (PYY(3-36) taken as 1)
T1 construct: expressed in transfected cells; membrane fraction
T1 sequence (P49146 1-381): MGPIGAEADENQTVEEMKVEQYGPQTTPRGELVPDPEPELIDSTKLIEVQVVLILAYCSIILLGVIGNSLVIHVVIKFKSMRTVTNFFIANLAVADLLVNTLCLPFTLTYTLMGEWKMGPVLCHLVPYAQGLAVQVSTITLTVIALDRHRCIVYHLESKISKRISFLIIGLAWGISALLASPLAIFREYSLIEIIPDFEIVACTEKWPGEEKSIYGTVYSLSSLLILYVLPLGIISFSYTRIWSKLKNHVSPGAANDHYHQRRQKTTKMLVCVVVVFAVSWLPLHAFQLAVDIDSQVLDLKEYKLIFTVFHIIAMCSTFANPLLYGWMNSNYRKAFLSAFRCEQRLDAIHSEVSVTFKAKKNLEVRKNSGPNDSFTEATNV
Procedure, shortened: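 Read-out is [125I]-PYY displacement from membranes of CHO/dhfr− cells stably transfected with human Y2R. Membranes were obtained by disrupting cells in a buffer of 10 mM NaHCO3, 5 mM EDTA and protease inhibitors.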

human Y2 receptor [2] = target: T1, human Y2 receptor; test: Human Y2 Receptor G Protein Binding Assay (GBA), [35S]GTPγS; format: biochemical; details: EC50 of test compound/EC50 of PYY(3-36) (PYY3-36 taken as 1), hY2R/CHO membrane fraction
Procedure, shortened: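 Agonism measured as [35S]GTPγS binding, read by GF/C filtration and scintillation counting after 120 min at room temperature, using human Y2 membranes at 1 μg protein/mL in pH 7.4 Tris/MgCl2/NaCl/GDP buffer. Compound serially diluted 100 μM–1 nM; EC50 normalized to PYY(3-36) (ratio = compound/PYY).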

RBA IC50 Ratio (human Y2 receptor [1])	GBA EC50 Ratio (human Y2 receptor [2])	Substance
5.2	4.2	Ac-[D-Pro24, Iva26, Cha27,28,36, Aib31]-PYY(23-36) (Ac-S[dP]R[Iva][Cha][Cha]NL[Aib]TRQR[Cha]-NH2; SMILES CC[C@](C)(NC(=O)[C@H](CCCNC(=N)N)NC(=O)[C@H]1CCCN1C(=O)[C@H](CO)NC(C)=O)C(=O)N[C@@H](CC1CCCCC1)C(=O)N[C@@H](CC1CCCCC1)C(=O)N[C@@H](CC(N)=O)C(=O)N[C@@H](CC(C)C)C(=O)NC(C)(C)C(=O)N[C@H](C(=O)N[C@@H](CCCNC(=N)N)C(=O)N[C@@H](CCC(N)=O)C(=O)N[C@@H](CCCNC(=N)N)C(=O)N[C@@H](CC1CCCCC1)C(N)=O)[C@@H](C)O) [compound No. 176]
6.6	4.2	Ac-[D-Pro24, Lys(Ac)25, Pya(4)26, Cha27,36, Aib28,31, Lys30]-PYY(23-36) (Ac-S[dP]K(Ac)[4Pal][Cha][Aib]NK[Aib]TRQR[Cha]-NH2; SMILES CC(=O)NCCCC[C@H](NC(=O)[C@H]1CCCN1C(=O)[C@H](CO)NC(C)=O)C(=O)N[C@@H](Cc1ccncc1)C(=O)N[C@@H](CC1CCCCC1)C(=O)NC(C)(C)C(=O)N[C@@H](CC(N)=O)C(=O)N[C@@H](CCCCN)C(=O)NC(C)(C)C(=O)N[C@H](C(=O)N[C@@H](CCCNC(=N)N)C(=O)N[C@@H](CCC(N)=O)C(=O)N[C@@H](CCCNC(=N)N)C(=O)N[C@@H](CC1CCCCC1)C(N)=O)[C@@H](C)O) [compound No. 280]
1.1	1.8	Ac-[D-Pro24, Nar25, Pya(4)26, Cha27,36, Aib28,31, Lys30]-PYY(23-36) (Ac-S[dP][Nar][4Pal][Cha][Aib]NK[Aib]TRQR[Cha]-NH2; reading uncertain) [compound No. 290]
20	2.6	Ac-[D-Pro24, Nle25, Pya(4)26, Cha27,28,36, Aib31]-PYY(23-36) (Ac-S[dP][Nle][4Pal][Cha][Cha]NL[Aib]TRQR[Cha]-NH2; SMILES CCCC[C@H](NC(=O)[C@H]1CCCN1C(=O)[C@H](CO)NC(C)=O)C(=O)N[C@@H](Cc1ccncc1)C(=O)N[C@@H](CC1CCCCC1)C(=O)N[C@@H](CC1CCCCC1)C(=O)N[C@@H](CC(N)=O)C(=O)N[C@@H](CC(C)C)C(=O)NC(C)(C)C(=O)N[C@H](C(=O)N[C@@H](CCCNC(=N)N)C(=O)N[C@@H](CCC(N)=O)C(=O)N[C@@H](CCCNC(=N)N)C(=O)N[C@@H](CC1CCCCC1)C(N)=O)[C@@H](C)O) [compound No. 140]
4.2	2.2	Ac-[D-Pro24, Orn26, Cha27,28,36, Aib31]-PYY(23-36) (Ac-S[dP]R[Orn][Cha][Cha]NL[Aib]TRQR[Cha]-NH2; SMILES CC(=O)N[C@@H](CO)C(=O)N1CCC[C@@H]1C(=O)N[C@@H](CCCNC(=N)N)C(=O)N[C@@H](CCCN)C(=O)N[C@@H](CC1CCCCC1)C(=O)N[C@@H](CC1CCCCC1)C(=O)N[C@@H](CC(N)=O)C(=O)N[C@@H](CC(C)C)C(=O)NC(C)(C)C(=O)N[C@H](C(=O)N[C@@H](CCCNC(=N)N)C(=O)N[C@@H](CCC(N)=O)C(=O)N[C@@H](CCCNC(=N)N)C(=O)N[C@@H](CC1CCCCC1)C(N)=O)[C@@H](C)O) [compound No. 150]

The remaining lines, values behind:

Substance	RBA IC50 Ratio (human Y2 receptor [1])	GBA EC50 Ratio (human Y2 receptor [2])
Ac-[D-Pro24, Har25, Cha27,36, Aib28,31, Lys30]-PYY(23-36) (Ac-S[dP][hArg]H[Cha][Aib]NK[Aib]TRQR[Cha]-NH2; SMILES CC(=O)N[C@@H](CO)C(=O)N1CCC[C@@H]1C(=O)N[C@@H](CCCCNC(=N)N)C(=O)N[C@@H](Cc1c[nH]cn1)C(=O)N[C@@H](CC1CCCCC1)C(=O)NC(C)(C)C(=O)N[C@@H](CC(N)=O)C(=O)N[C@@H](CCCCN)C(=O)NC(C)(C)C(=O)N[C@H](C(=O)N[C@@H](CCCNC(=N)N)C(=O)N[C@@H](CCC(N)=O)C(=O)N[C@@H](CCCNC(=N)N)C(=O)N[C@@H](CC1CCCCC1)C(N)=O)[C@@H](C)O) [compound No. 291]	1.2	2.7
Ac-[D-Pro24, Har25, Pya(4)26, Cha27,36, Aib28,31, Lys30]-PYY(23-36) [compound No. 289]	0.82	1.4
Ac-[D-Pro24, Hse26, Cha27,36, Aib28,31]-PYY(23-36) (Ac-S[dP]R[hSer][Cha][Aib]NL[Aib]TRQR[Cha]-NH2; SMILES CC(=O)N[C@@H](CO)C(=O)N1CCC[C@@H]1C(=O)N[C@@H](CCCNC(=N)N)C(=O)N[C@@H](CCO)C(=O)N[C@@H](CC1CCCCC1)C(=O)NC(C)(C)C(=O)N[C@@H](CC(N)=O)C(=O)N[C@@H](CC(C)C)C(=O)NC(C)(C)C(=O)N[C@H](C(=O)N[C@@H](CCCNC(=N)N)C(=O)N[C@@H](CCC(N)=O)C(=O)N[C@@H](CCCNC(=N)N)C(=O)N[C@@H](CC1CCCCC1)C(N)=O)[C@@H](C)O) [compound No. 128]	11	5.4
Ac-[D-Pro24, Iva25, Cha27,28,36, Aib31]-PYY(23-36) (Ac-S[dP][Iva]H[Cha][Cha]NL[Aib]TRQR[Cha]-NH2; SMILES CC[C@](C)(NC(=O)[C@H]1CCCN1C(=O)[C@H](CO)NC(C)=O)C(=O)N[C@@H](Cc1c[nH]cn1)C(=O)N[C@@H](CC1CCCCC1)C(=O)N[C@@H](CC1CCCCC1)C(=O)N[C@@H](CC(N)=O)C(=O)N[C@@H](CC(C)C)C(=O)NC(C)(C)C(=O)N[C@H](C(=O)N[C@@H](CCCNC(=N)N)C(=O)N[C@@H](CCC(N)=O)C(=O)N[C@@H](CCCNC(=N)N)C(=O)N[C@@H](CC1CCCCC1)C(N)=O)[C@@H](C)O) [compound No. 177]	4.5	3.7
Ac-[D-Pro24, Iva25, Cha27,36, Aib28,31, Lys30]-PYY(23-36) (Ac-S[dP][Iva]H[Cha][Aib]NK[Aib]TRQR[Cha]-NH2; SMILES CC[C@](C)(NC(=O)[C@H]1CCCN1C(=O)[C@H](CO)NC(C)=O)C(=O)N[C@@H](Cc1c[nH]cn1)C(=O)N[C@@H](CC1CCCCC1)C(=O)NC(C)(C)C(=O)N[C@@H](CC(N)=O)C(=O)N[C@@H](CCCCN)C(=O)NC(C)(C)C(=O)N[C@H](C(=O)N[C@@H](CCCNC(=N)N)C(=O)N[C@@H](CCC(N)=O)C(=O)N[C@@H](CCCNC(=N)N)C(=O)N[C@@H](CC1CCCCC1)C(N)=O)[C@@H](C)O) [compound No. 239]	8.8	5.2
Ac-[D-Pro24, Iva25, Pya(4)26, Cha27,36, Nva28, Aib31, Lys30]-PYY(23-36) (Ac-S[dP][Iva][4Pal][Cha][Nva]NK[Aib]TRQR[Cha]-NH2; SMILES CCC[C@H](NC(=O)[C@H](CC1CCCCC1)NC(=O)[C@H](Cc1ccncc1)NC(=O)[C@](C)(CC)NC(=O)[C@H]1CCCN1C(=O)[C@H](CO)NC(C)=O)C(=O)N[C@@H](CC(N)=O)C(=O)N[C@@H](CCCCN)C(=O)NC(C)(C)C(=O)N[C@H](C(=O)N[C@@H](CCCNC(=N)N)C(=O)N[C@@H](CCC(N)=O)C(=O)N[C@@H](CCCNC(=N)N)C(=O)N[C@@H](CC1CCCCC1)C(N)=O)[C@@H](C)O) [compound No. 352]	1.6	1.3
